The series is described as follows: soluble on expression in E. coli; label from the status in PepcDB or PDB records.
With GPLGSGTWDCDTCLVQNKPEAVKCVACETPKPG, the “soluble on expression in E. coli” value was “soluble”.
Next, “GCSDGGREALVAAQRYPDDFNGIIAGAPALNFQVQKTLYHGWMARSNIGPDGKPILLASRLPLLHKAVLAKCDVLDGQIDGLIADPRLCNFDPASVQCTSSVDTTNCLTQQEVAVVKRFYEGPKDPDSGERLTVGGPQPGSELGWAGVFVPITAEQTVYSEKAASEAIRNMVFENNPVAGFDLSTLRFDKSTFDKLRPLHPLYDATNPDLAPFASRGGKLILWHGWADPNVSPLNTLAYHEAVEAKLGKARTEAFESLYMLPGVYHCGAGEGPSVIDLLTPMMAWVESNHAPD”: “not soluble”; “MEVQFKNTRKGYYLNSERIELHKGDVVAVEANPGHDIGTVTLTGKLVKLQMRKHRYNTNNGEPFKIYRIAKQGDLDKYCEAKAREYDTMIQSRQISAELNLDMKIGDVEYQGDGNKAIFYYIADERVDFRQLIRVLAETFHIRVEMKQIGARQEAGRIGGIGPCGRQLCCSAWKMNFVSVNTSAARYQDLALNPQKLTGLCAKLKCCLNYEVDAYVEARKKMPSPEIVLETKESAYHYFKADVFRREVSYSTVPNAPVNLTTISARRAFEVISQNKQGFKPVSLEYDDKKQSSGHELSDILTDNSLTRFDDALSRRRRRNGNGNRDFSDREKAGEPHRTPDSIQPTPRVRSSSRMPSREKSPRPEGGDRRENMRERSRGDARFARPYTNEGGSERMEGARRVVGSGRRPPRQSTPRQEDRQGERKEELEHHHHHH”: “soluble”; “MAHHHHHHMATSSHRTAMSSLSAAMKQYVQQAAEDDVVCAFGPDYFHGARTGACVGSLFSATLCWYTFRLLKEDQREVDFLAGLKHGQRNPHFSTWTLLRGLRTQPMLTTGCIALATTSAMKCIKCYLANQRCREFFTDDVQFHMISELSETDLDAAAFLSTVLHNANGCGVGARNALSTLREDRSEDQPSMSPAPTASASTSTVNGLLHTHSSRLDSKEFTLTHRAPTYYDGVAVAFLGSVLDCYLPQKPVQKYYNMRVGTW”: “not soluble”.
Then “TTCDELISLCDEHHMSVADVVWANETAMRSAVQVRSDLDTVWHVMRRCVQHGCNTNQTVLPGGLDVPRRAPKMYARLASNSDVLKRDGRRSDAVLESSDAAWVDLFALAVSEENAAGGRIVTAPTNGAAGVIPAVLHYYWHFVDHADEDGVVTFLLTAGAIGYLFKRNASISGAEVGCQGEVGTACSMAAAGLCAVMGGTPHQVENAAEIGIEHNLGLTCDPVGGLVQIPCIERNAMAANTAINAVRMAMLGDGTHIVSLDQAIKTMKDTGEDMMAKYKETSKGGLAVN”, with “not soluble”.
For “AQGQQGQVRLLCNTAALTEYLPELLASYLAENPGVSVDVQELPSLRIVQAITQGMADLGIVSTAAPSEHLQTRPFRDDPLVLVTPQAHPLASALAPSFVDSLAHGYVGLGAGSALGLYLEEQALHEGQRMQVRVRAEGFDGV”, the “soluble on expression in E. coli” value is “not soluble”.
Turning to “MKLSTKLCWCGIKGRLRPQKQQQLHNTNLQMTELKKQKTAEQKTRPQNVGIKGIQIYIPTQCVNQSELEKFDGVSQGKYTIGLGQTNMSFVNDREDIYSMSLTVLSKLIKSYNIDTNKIGRLEVGTETLIDKSKSVKSVLMQLFGENTDVEGIDTLNACYGGTNALFNSLNWIESNAWDGRDAIVVCGDIAIYDKGAARPTGGAGTVAMWIGPDAPIVFDSVRASYMEHAYDFYKPDFTSEYPYVDGHFSLTCYVKALDQVYKSYSKKAISKGLVSDPAGSDALNVLKYFDYNVFHVPTCKLVTKSYGRLLYNDFRANPQLFPEVDAELATRDYDESLTDKNIEKTFVNVAKPFHKERVAQSLIVPTNTGNMYTASVYAAFASLLNYVGSDDLQGKRVGLFSYGSGLAASLYSCKIVGDVQHIIKELDITNKLAKRITETPKDYEAAIELRENAHLKKNFKPQGSIEHLQSGVYYLTNIDDKFRRSYDVKK”, the “soluble on expression in E. coli” value was “soluble”.
Take “MGHHHHHHSHAKGKSAGLVKATGRNMEQFQVSVSVAPNAKITFELVYEELLKRRLGVYELLLKVRPQQLVKHLQMDIHIFEPQGISFLETESTFMTNQLVDALTTWQNKTKAHIRFKPTLSQQQKSPEQQETVLDGNLIIRYDVDRAISGGSIQIENGYFVHYFAPEGLTTMPKNVVFVIDKSGSMSGRKIQQTREALIKILDDLSPRDQFNLIVFSTEATQWRPSLVPASAENVNKARSFAAGIQALGGTNINDAMLMAVQLLDSSNQEERLPEGSVSLIILLTDGDPTVGETNPR”: the “soluble on expression in E. coli” value is given as “not soluble”.
For “MNFLSEQLLAHLNKEQQEAVRTTEGPLLIMAGAGSGKTRVLTHRIAYLMAEKHVAPWNILAITFTNKAAREMRERVQSLLGGAAEDVWISTFHSMCVRILRRDIDRIGINRNFSILDPTDQLSVMKTILKEKNIDPKKFEPRTILGTISAAKNELLPPEQFAKRASTYYEKVVSDVYQEYQQRLLRNHSLDFDDLIMTTIQLFDRVPDVLHYYQYKFQYIHIDEYQDTNRAQYTLVKKLAERFQNICAVGDADQSIYRWRGADIQNILSFERDYPNAKVILLEQNYRSTKRILQAANEVIEHNVNRKPKRIWTENPEGKPILYYEAMNEADEAQFVAGRIREAVERGERRYRDFAVLYRTNAQSRVMEEMLLKANIPYQIVGGLKFYDRKEIKDILAYLRVIANPDDDLSLLRIINVPKRGIGASTIDKLVRYAADHELSLFEALGELEMIGLGAKAAGALAAFRSQLEQWTQLQEYVSVTELVEEVLDKSGYREMLKAERTIEAQSRLENLDEFLSVTKHFENVSDDKSLIAFLTDLALISDLDELDGTEQAAEGDAVMLMTLHAAKGLEFPVVFLIGMEEGIFPHNRSLEDDDEMEEERRLAYVGITRAEEELVLTSAQMRTLFGNIQMDPPSRFLNEIPAHLLETASRRQAGASRPAVSRPQASGAVGSWKVGDRANHRKWGIGTVVSVRGGGDDQELDIAFPSPIGIKRLLAKFAPIEKV”, the “soluble on expression in E. coli” value is given as “soluble”.
As to “MSSRIEQIIDEIDEFIESCKFQPLSATKIIVNKEEIEELLRELRLKTPDEIKRYQKIISNKDAILEDAQSKADAIIADAQAKAQELVTQHEIMQKAYAQANDTINAANKQAQEILDSATQDANSIRLSAITYTDDMMANIGSVLNQTLEDAGGKYKGFIDALQSCLDVVNHNRQELAPQTAQAAAMTGSYHEEPADAPEEDSLLDDLGEE”, the “soluble on expression in E. coli” value is “not soluble”.
Then “MGHHHHHHSHMPESYWEKVSGKNIPSSLDLYPIIHNYLQEDDEILDIGCGSGKISLELASLGYSVTGIDINSEAIRLAETAARSPGLNQKTGGKAEFKVENASSLSFHDSSFDFAVMQAFLTSVPDPKERSRIIKEVFRVLKPGAYLYLVEFGQNWHLKLYRKRYLHDFPITKEEGSFLARDPETGETEFIAHHFTEKELVFLLTDCRFEIDYFRVKELETRTGNKILGFVIIAQKL”, with “not soluble”.
Next, “SLFITDKRVKESATALNPSMFQGLYLQDQMLKDPTYLPIYGSSELSRLDEFHPSNYFQVNNEGFTPYLVGKGGSQSLIHSLNFAAHMDQLKGKKIVFIVSPQWFIKRGSDEQHFAPNYSALQGLDLAFNDQIDPEIKKKMMKRMLRFKAVQNDAILSELYKAMVNGQTWKVNALKPAAKVYYSMLEKKDLYYSTTESSGPKRYISQSVKDKSWSELNKLADQSGKRHSGSNDFHIDNPVYKKLKPKVPKLKGKNKGRSYAVSPEYGDFEMMLDILKDAGAEPMFVTIPVNGKWYDYTGFPKKGRTDYYKKVNKQIRAKGFQVADFSGHEYDPYFMKDTIHIGWKGWVYVDKAIDEFYKTGKVTSS”: “soluble”; “MSNISTPQPRIGFVSLGCPKNLVDSERILTELRTEGYQVVPRYDDAELVIVNTCGFIDSAVQESLEAIGEALNENGKVIVTGCLGAKENQIREVHPKVLEITGPHSYEQVLSHVHQYVPKPTHNPFTSLVPEQGVKLTPRHYAYLKISEGLEHHHHHH”: “soluble”; “MQNAILLVSCPDRKGLVKEISSFIADNGGNIVSFDQHIDEQTKTFLARVEWSLEDFKIPREKIENEFKKVAQKFSMNFQISFSDYVKKVAIFVSKQEHCFYDLMHRFYSGELKGEVKLVISNHEKARKTAEFFGVPFYHIPKTKENKLEAEKRELELLKEYGVELVVLARYMQILSPKFVKEYENKIINIHHSFLPAFPGAKPYERAFGKGVKIIGATAHYVTEELDEGPIIEQDVVRVSHKDSLEDFIRKGKDIEKVVLARAVKWHLEDKILVYNGKTVVFE”: “soluble”.
Then “MAISDGRTGNTRQAEALASTLVGSLYTTQVLKPRIPWRWTAPYCLPGAKHAFGTTFSHALRYPPFLAIGCGRQAALATRLLHKQGACVVQILDPRLPARHWDLLVVPEHDHIRGHNVLTLLGSLHPVNDVWLATGRAQFPELGDLPGQRVALLVGAPTPQAPWQPAQLEELCTALVKGLSCGGSVLATTSRRTPPELATQLRKHLATIPGLFWNNTDKGANPYPGILGWADAIIATADSVNLLSEACATRAPVTAAFANQTRGRIRCFIDALGARLCTVENLLAIDTLAQPLRETERIANEVRAWFGMV”, with “not soluble”; and “MSSDNEIEDLKRAFIFALRKKFPRDSSSSIAIATVNLIRKIIFRENPKTMNDLQVSLANHCKKLHGAERSELIIINIGLMITKLARDEVLQKKGGGEPEPLYTLWRDDDETIKKLKTADMKKIKKDLQASIKELVTEIESSRECIASQSTELLFNNDVVLVHSLRSSQTMHNFLSHAVKSGRKHRVIDVVDEEEHIESTPDFATAIELYEVASKMPEASKVVLVAAAYFPDGSCLVPAGGHQIALLAKRHCVPVYVLAPFYKLCPFFMTNPDSLHTFRSNSLPFDLSAKSAGLVDCLHPAFDCLQSDLVTLFVSNTSCVIPSHVNRLKEDYYHSQDIADY”, with “not soluble”; and “MAKNTSCGVQLRIRGKVQGVGFRPFVWQLAQQLNLHGDVCNDGDGVEVRLREDPEVFLVQLYQHCPPLARIDSVEREPFIWSQLPTEFTIR”, with “soluble”.
As to “MGIMPRKVLAIKNFKERFDLLPKLKGVIAEKQPDILVVVGNILKNEALEKEYERAHLARREPNRKVIHENEHYIIETLDKFFREIGELGVKTFVVPGKNDAPLKIFLRAAYEAETAYPNIRVLHEGFAGWRGEFEVIGFGGLLTEHEFEEDFVLKYPRWYVEYILKFVNELKPRRLVTIFYTPPIGEFVDRTPEDPKHHGSAVVNTIIKSLNPEVAIVGHVGKGHELVGNTIVVNPGEFEEGRYAFLDLTQHKIKLEQFS”, the “soluble on expression in E. coli” value is “soluble”.
“GSHMSNAKTKLGITKYSIVTNSNDSVTLRLMTEHDLAMLYEWLNRSHIVEWWGGEEARPTLADVQEQYLPSVLAQESVTPYIAMLNGEPIGYAQSYVALGSGDGWWEEETDPGVRGIDQLLANASQLGKGLGTKLVRALVELLFNDPEVTKIQTDPSPSNLRAIRCYEKAGFERQGTVTTPDGPAVYMVQTRQAFERTRSDA”: the “soluble on expression in E. coli” value is on record as “soluble”.
In the case of “YTEEELRVLLAESYKSGEIRKSELKYMNNIFTFDKRMAKEIMVPRNEMVSLSLDEDSISNLQETVKQTKYTRYPVVREDKDNVIGVINMKEVLFSMLTKDFSIKKHQIEPFVQPVIHVIETIPIYKLLLKMQKERTHMAILIDEYGGTSGLVTVEDIIEEIVGEIRDEFDADEVPHIRELGKDHYLLNAKLLISDVNSLLGTDLSE”, the “soluble on expression in E. coli” value is reported as “soluble”.
Next, “MGSDKIHHHHHHMAIKNVSIVYPNRFGGGIACLAVHVLTSHLNKYRDISANAYFIENYSKIKNSDAILITLQYENDYFNVVKIVKELKAQNPNAIFIAGGPCAISNPLPIQEFFDVFVVGEIEGTDTMYQLINGNFEIPGVYVPKTYNNEKIKRIYPKKLGIDDYPISQVTHESGAYGKAYLLEIGRGCIRNCKFCMAKCIYAPPRYRKIEDLKHLVDEGLKNTDADKVSLIAPSVSDYRYVLDLCAHISEKNVSISPSSLRADTITDELLEYLNLKTLTIAPEAGSEVLRKKIDKGITEENILNAVDIAKTHGISTVKLYYMVGFPDETEEDIEEIINLTKKIKDNVRKVDVSINPMVPKPHTPFEDFEFDMDSKTKIKYIEKSLRKIKVSVDFEKFNSMVAQTVLARGGSELSKVLNESRNTIELIKNVDLDNYINKIEEKPWDFIEI”: “not soluble”.
